Assay results as given in article PMC9884143 (The Journal of Biological Chemistry, 2023).
Changes are numbered by the printed parent chain.

B1: Rescue-1 (VHH)
VHH: DVQLVESGGGLVQAGDSLRLSCTASGRTFTTNAMGWFRQAPGKEREFVAAITWSYGTTYYSDPVEGRFTISRDNAKNTVYLQMNSLKPEDTAVYYCFYERLAWDTSTYWGQGTQVTVS
B2: Rescue-3 (VHH)
VHH: B1 VHH with T52S, S54N, Y55S, E65K
B3: Rescue-2 (VHH)
VHH: B1 VHH with T52S, S54N, G56D
B4: CoV2-YD-12 (VHH)
VHH: QVQLVESGGGLVQAGGSLRLSCAASGSTFSRLNILWWRQAAGKPREWVATSTDGGTRNYAAAVKGRFTISRDNAKNTVYLQMNSLKPEDTAVYYCYTPDYWGQGTQVTVS
B5: CoV2-YD-11 (VHH)
VHH: QVQLVESGGGLVQAGGSLRLSCVVSGTTFSRYDMGWYRQAPGKARETVATISRSGTTNYAYFVKGRFTITRDNAKNTVYLQMNSLKPEDTAVYYCYIFGLDYWGQGTQVTVS
B6: CoV2-YD-13 (VHH)
VHH: QVQLVESGGGLVQAGGSLRLSCAASGFTFDDYAIGWFRQAPGKEREGVSCISSSGGFTNYADSVKGRFTISSDNAKNTVYLQMNSLKPEDTAVYYCAVVVNGYGLDEWAYDYWGQGTQVTVS
B7: CoV2-YD-5 (VHH)
VHH: QVQLVESGGGLVQAGGSLRLSCVASGTTISTYNLLWFRQAPGQQREWVASISSGGDTSYAGSVKGRFTISRDNTENTMYLQMNSLKPEDTAVYYCHGANAAHGMDYWGKGTQVTVS
B8: CoV2-YD-14 (VHH)
VHH: QVQLVESGGGLVQAGGSLRLSCSASGNTFSTYSLSWYRQAPGKQREFVAAISSGGSTSYANSVKGRFSISRDNAKKTMYLQMNSLKPEDTAVYYCYVVTTLMDYWGQGTQVTVS
B9: CoV2-YD-35 (VHH)
VHH: DVQLVESGGGLVQAGDSLRLSCTASGRTFTTNAMGWFRQAPGKEREFVAAISWSYGTTYYSDPVEGRFTISRSNAKNTVYLQMNSLKPDDTAVYYCTLRSRFNAAAWTTEAAFDYWGQGTQVTVS
B10: CoV2-YD-37 (VHH)
VHH: B9 VHH with S54N, G56D
B11: CoV2-YD-36 (VHH)
VHH: B9 VHH with D1Q, S52T
B12: CoV2-YD-38 (VHH)
VHH: B9 VHH with T23A, S54N, Y55S, E65K, S73D, D89G, A105Y, A111N
B13: CoV2-YD-10 (VHH)
VHH: QVQLVESGGDLVQPGGSLRLSCAASGFTFSTYDMGWFRQGPGKEREFVAQIAPNGITTYYADSVKGRFTISRDNAKRMVFLQMNSLKPEDTAVYFCAVDLAPWGSLKLRTNPARGQGTQVTVS

Target: T1, SARS-CoV-2 Spike receptor-binding domain (RBD), original strain (SARS-CoV-2, original strain, UniProt P0DTC2)
Test: not given
Conditions: not given

**Q.** With B1 as the binder, how does the Kd read?
**A.** 50.9 nM

**Q.** How did the Kd turn out when B2 was run?
**A.** 24.9 nM

**Q.** For B3, which Kd is on record?
**A.** 26.8 nM

**Q.** With B4 as the binder, how does the Kd read?
**A.** 0.145 nM

**Q.** For B5, which Kd is on record?
**A.** 0.179 nM

**Q.** How did the Kd turn out when B6 was run?
**A.** 2.43 nM

**Q.** With B7 as the binder, how does the Kd read?
**A.** 0.114 nM

**Q.** Which Kd does the source give for B8 here?
**A.** 0.152 nM

**Q.** With B9 as the binder, how does the Kd read?
**A.** 0.14 nM

**Q.** How did the Kd turn out when B10 was run?
**A.** 0.411 nM

**Q.** Which Kd does the source give for B11 here?
**A.** 0.154 nM

**Q.** For B12, which Kd is on record?
**A.** 0.561 nM

Target: T1, SARS-CoV-2 Spike receptor-binding …
Test: SPR
Conditions: both partners purified

**Q.** Does B13 bind?
**A.** binds
